# Test results reported in patent US20100261778.
# Target: p53 wild-type (UniProt P04637)
# Experiment: cell_activity
# Details: dual luciferase activation in H1299 (p53 null)
# p53 wild-type, sequence (P04637 whole entry): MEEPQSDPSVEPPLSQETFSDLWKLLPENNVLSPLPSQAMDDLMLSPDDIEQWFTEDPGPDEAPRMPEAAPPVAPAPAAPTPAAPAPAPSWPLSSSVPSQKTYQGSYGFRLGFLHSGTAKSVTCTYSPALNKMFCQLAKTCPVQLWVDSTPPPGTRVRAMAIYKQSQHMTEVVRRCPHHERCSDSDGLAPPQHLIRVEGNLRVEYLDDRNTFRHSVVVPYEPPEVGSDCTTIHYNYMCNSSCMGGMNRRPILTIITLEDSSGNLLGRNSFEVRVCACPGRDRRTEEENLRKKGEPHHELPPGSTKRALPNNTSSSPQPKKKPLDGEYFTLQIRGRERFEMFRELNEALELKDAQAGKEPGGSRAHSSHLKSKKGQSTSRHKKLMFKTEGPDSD
substance,measurement,value
killin promoter 140 bp fragment with p53 site (pGL3-Killin),activity,70 fold
